Laboratory results as given in US20140193915, “COMPOSITIONS AND METHODS FOR CUSTOM SITE-SPECIFIC DNA RECOMBINASES” (Monsanto Technology, LLC, published 2014).

Assays:
sN-TALER N4.2 = molecular target: T1, sN-TALER N4.2 (synthetic); assay: cell_activity; E. coli
T1 chain: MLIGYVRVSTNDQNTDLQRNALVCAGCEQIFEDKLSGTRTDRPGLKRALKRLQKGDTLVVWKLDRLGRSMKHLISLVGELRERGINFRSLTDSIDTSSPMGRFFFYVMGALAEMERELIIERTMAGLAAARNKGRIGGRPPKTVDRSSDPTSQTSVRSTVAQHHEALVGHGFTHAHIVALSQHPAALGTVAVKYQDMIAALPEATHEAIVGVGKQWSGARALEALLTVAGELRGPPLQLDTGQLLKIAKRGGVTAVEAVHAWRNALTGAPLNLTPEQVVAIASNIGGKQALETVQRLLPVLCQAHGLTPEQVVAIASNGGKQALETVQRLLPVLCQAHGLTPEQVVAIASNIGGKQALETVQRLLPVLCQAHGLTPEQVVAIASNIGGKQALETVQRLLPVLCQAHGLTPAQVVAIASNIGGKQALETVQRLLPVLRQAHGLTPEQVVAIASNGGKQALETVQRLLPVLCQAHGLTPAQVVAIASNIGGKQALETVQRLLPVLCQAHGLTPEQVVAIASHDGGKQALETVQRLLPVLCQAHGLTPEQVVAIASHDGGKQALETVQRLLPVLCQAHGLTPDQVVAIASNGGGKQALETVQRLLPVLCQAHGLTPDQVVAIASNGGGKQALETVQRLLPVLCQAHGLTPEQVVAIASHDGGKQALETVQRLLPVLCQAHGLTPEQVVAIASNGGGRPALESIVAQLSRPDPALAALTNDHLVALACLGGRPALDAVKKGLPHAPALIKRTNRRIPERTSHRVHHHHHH
Protocol: (§1) The co-transformed bacteria were plated on media with chloramphenicol, kanamycin, and X-gal then incubated at 37° C. for 18 to 36 hours. Control samples consisted of transformations using the reporter construct alone. Control transformants were similarly plated. The bacterial transformation protocol was either heat shock or electroporation per standard molecular biology techniques.
(§2) For each of these N-TALER chimera expression constructs, from one to three independent clones were selected for plasmid purification. These N-TALER chimera expression constructs were co-transformed with five of the N-TALER reporter constructs, as indicated in Table 15. […] In contrast to the result for pN-TALER N4.2.2, the chimera sN-TALER N4.2.2, with the same truncation point but a specific recombinase catalytic domain, reporters with 20, 24, or 40 bp of TALER central sequence length were efficiently recombined (score of 1) while reporters with 30 or 50 bp of TALER central sequence length were not recombined (score of 5). For the chimera sN-TALER N4.2, reporters with 20, 24, or 40 bp of TALER central sequence length were efficiently recombined (score of 1); the reporter with 30 bp of TALER central sequence length was poorly recombined (score of 3); and the reporter with 50 bp of TALER central sequence length was not recombined (score of 5). For the chimera pN-TALER N4.2, the recombination efficiency on the reporters tested varied from intermediate (scores of 3 and 4) to none (score of 5). […] In contrast to the result for sN-TALER N3.2, the chimera pN-TALER N3.2, with the same truncation point but a permissive recombinase catalytic domain, recombination efficiency on the reporters tested varied from efficient (scores of 1.5, 2, and 3) to none (score of 5). For both chimeras sN-TALER V.2 and pN-TALER V.2, there was efficient recombination (scores of 1, 1.5, and 2) of the 5 N-TALER reporter constructs tested.

sN-TALER N4.2.2 = molecular target: T2, sN-TALER N4.2.2 (synthetic); assay: cell_activity; E. coli
T2 chain: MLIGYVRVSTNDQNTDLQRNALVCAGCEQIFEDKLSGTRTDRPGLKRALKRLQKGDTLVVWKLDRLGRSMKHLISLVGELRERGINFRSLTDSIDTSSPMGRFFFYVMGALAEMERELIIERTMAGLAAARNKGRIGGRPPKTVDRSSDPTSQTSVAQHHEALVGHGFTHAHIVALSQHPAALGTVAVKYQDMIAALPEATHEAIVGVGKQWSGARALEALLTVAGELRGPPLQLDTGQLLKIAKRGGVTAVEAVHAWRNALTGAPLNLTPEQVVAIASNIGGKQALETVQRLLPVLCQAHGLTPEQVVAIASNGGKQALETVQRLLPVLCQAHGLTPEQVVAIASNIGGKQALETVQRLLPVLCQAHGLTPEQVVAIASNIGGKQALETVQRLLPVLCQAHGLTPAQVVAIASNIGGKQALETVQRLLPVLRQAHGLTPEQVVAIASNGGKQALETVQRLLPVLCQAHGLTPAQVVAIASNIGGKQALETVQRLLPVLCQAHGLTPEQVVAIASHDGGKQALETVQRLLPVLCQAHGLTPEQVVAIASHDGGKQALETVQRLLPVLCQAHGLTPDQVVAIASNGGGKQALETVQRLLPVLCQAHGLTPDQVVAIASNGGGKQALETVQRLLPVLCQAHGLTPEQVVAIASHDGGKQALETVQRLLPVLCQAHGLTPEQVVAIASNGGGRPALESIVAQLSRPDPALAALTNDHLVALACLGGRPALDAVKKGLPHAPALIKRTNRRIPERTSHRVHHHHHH
Protocol: as §1, §2

B1: Gin18TALE+1 (dsDNA)
DNA 1: AGAAGGTATTTATATCCAAAACCATGGTTTACAATATAAATACCTTCT
DNA 2: AGAAGGTATTTATATTGTAAACCATGGTTTTGGATATAAATACCTTCT
activity (sN-TALER N4.2): 1 score
activity (sN-TALER N4.2.2): 1 score
